Data taken from patent US20050203009A1, “VPAC1 selective antagonists and their pharmacological methods of use” (Bayer Pharmaceuticals Corporation, priority 2004, published 2005).
Square brackets hold non-standard residues; d marks the D form. Primed or numbered codes have the meaning given here. Side chains are listed from the residue outwards. Ends that are not written are not given here. Peptide text beside a SMILES is read from it. maleimide″ = maleimide group of the 22 kD methoxy-PEG-maleimide reagent, which reacts with the Cys sulfhydryl to form a stable thioether linkage; maleimide = methoxy-PEG-maleimide (thioether to cysteine thiol)

T1: VPAC2 (Homo sapiens, UniProt P41587)
T1 construct: expressed in transfected cells; membranes
T1 sequence (P41587 24-438): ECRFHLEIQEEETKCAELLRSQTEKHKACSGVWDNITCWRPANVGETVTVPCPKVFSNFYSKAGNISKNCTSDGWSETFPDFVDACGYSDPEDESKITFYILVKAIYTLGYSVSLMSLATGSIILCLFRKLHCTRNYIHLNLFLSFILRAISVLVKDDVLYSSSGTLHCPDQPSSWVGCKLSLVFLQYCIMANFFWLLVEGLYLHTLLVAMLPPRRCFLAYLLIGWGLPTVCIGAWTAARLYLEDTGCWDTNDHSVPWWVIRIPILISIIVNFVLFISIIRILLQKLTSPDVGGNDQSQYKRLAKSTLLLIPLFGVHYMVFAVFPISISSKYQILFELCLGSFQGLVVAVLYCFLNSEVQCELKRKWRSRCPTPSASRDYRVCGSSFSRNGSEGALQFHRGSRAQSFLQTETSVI

T2: human VPAC1 (human, UniProt P32241 31-457)
T2 sequence (looked up): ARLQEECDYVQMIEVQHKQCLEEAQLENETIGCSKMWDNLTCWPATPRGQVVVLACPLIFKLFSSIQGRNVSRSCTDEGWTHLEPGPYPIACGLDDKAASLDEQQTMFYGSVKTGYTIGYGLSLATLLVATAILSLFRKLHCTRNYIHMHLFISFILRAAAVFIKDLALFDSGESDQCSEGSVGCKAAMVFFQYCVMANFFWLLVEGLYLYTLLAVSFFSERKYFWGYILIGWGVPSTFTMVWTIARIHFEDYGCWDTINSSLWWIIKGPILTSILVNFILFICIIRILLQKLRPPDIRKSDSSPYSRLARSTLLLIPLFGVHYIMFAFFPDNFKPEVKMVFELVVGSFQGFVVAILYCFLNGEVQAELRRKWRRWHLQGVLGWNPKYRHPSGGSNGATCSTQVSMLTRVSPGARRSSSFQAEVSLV

B1: R2P16 (peptide)
peptide: HFDAVFTNSYRKVLKRLSARKLLQSIL
HELM: PEPTIDE1{[ac].H.[dF].D.A.V.F.T.N.S.Y.R.K.V.L.K.R.L.S.A.R.K.L.L.Q.S.I.L.[am]}$$$$V2.0
SMILES: CC[C@H](C)[C@H](NC(=O)[C@H](CO)NC(=O)[C@H](CCC(N)=O)NC(=O)[C@H](CC(C)C)NC(=O)[C@H](CC(C)C)NC(=O)[C@H](CCCCN)NC(=O)[C@H](CCCNC(=N)N)NC(=O)[C@H](C)NC(=O)[C@H](CO)NC(=O)[C@H](CC(C)C)NC(=O)[C@H](CCCNC(=N)N)NC(=O)[C@H](CCCCN)NC(=O)[C@H](CC(C)C)NC(=O)[C@@H](NC(=O)[C@H](CCCCN)NC(=O)[C@H](CCCNC(=N)N)NC(=O)[C@H](Cc1ccc(O)cc1)NC(=O)[C@H](CO)NC(=O)[C@H](CC(N)=O)NC(=O)[C@@H](NC(=O)[C@H](Cc1ccccc1)NC(=O)[C@@H](NC(=O)[C@H](C)NC(=O)[C@H](CC(=O)O)NC(=O)[C@@H](Cc1ccccc1)NC(=O)[C@H](Cc1c[nH]cn1)NC(C)=O)C(C)C)[C@@H](C)O)C(C)C)C(=O)N[C@@H](CC(C)C)C(N)=O
notes: Synthetic VIP/GHRH hybrid peptide, not PEGylated; also called Peptide R2P16

How the values were obtained:
[1] = system: NCI-H727 human non-small cell lung carcinoma cell line; experiment: NCI-H727 cancer cell proliferation assay (Alamar Blue); format: cell-based
Method: NCI-H727 is an adherent human non-small cell lung carcinoma cell line. The cells are grown in RPMI-1640 plus 2 mM L-Glutamine and 10% FBS and cells subcultured in the following manner: Medium was removed and cells were rinsed once in PBS solution. To harvest the cells 10 mls PBS containing 2 ml of trypsin-EDTA solution was added to a 75 ml flask. The flask was incubated at 37° C. until the cells detached. Fresh culture medium was added, aspirated and dispensed into new culture flasks. A split ratio of 1:3 to 1:4 was carried out 2 times per week. The 96-well assay was performed as follows: Day 1) Cells were seeded at 7000 cells/well in 0.2 ml complete medium/well and incubated overnight at 37° C. Day 2) Complete medium was aspirated from wells and 200 ul/well PBS was added and aspirated. Cells were then treated with peptides using the assay medium RPMI-1640 plus 2 mM L-Glutamine and 0.2% FBS at a final volume of 200 ul/well and incubated for 2 days. Day 4) Alamar Blue (10% of total volume) was added to wells and absorbance (530/590 nm) read at 0, 4, 6, 8, 10 and 24 hours.

[2] = target: T1, VPAC2; experiment: Receptor competition assay, 125I-PACAP27 binding to CHO membranes (VPAC2); settings: membranes of VPAC2-transfected CHO cells, 0.1 nM 125I-PACAP27
Text: In order to test for selective binding of the VPAC1 selective antagonist to the VPAC1, both the VPAC1 and VPAC2 receptors were expressed in CHO cells using the following procedure. The human VPAC1 and the VPAC2 were cloned via RT PCR from human heart mRNA and human testis mRNA, respectively, using TaqPlus Precision PCR System (Stratagene). The PCR products were subcloned into pCDNA3.1 (Invitrogen) for in vitro translation and mammalian expression. The cell line chosen for expression was the CHOcreluc line already expressing a cAMP response element-luciferase reporter along with Gα16. These cells were grown under hygromycin selection at 0.4 mg/ml. On the day of transfection, CHOcreluc cells at 70% confluency were washed with serum free media and transfected using Lipofectamine Plus Reagent (Gibco BRL). Stable pools were selected in the presence of 0.4 mg/ml hygromycin and 1.5 mg/ml G418. Once viably-frozen stocks had been made from these pools they were cloned by limiting dilution.
The capacity of the VPAC1 selective antagonist to selectively bind the VPAC1 as opposed to the VPAC2 receptor was measured using membranes prepared from CHO cells transfected with both receptors as described in Example 3. […] The filters were washed with cold 25 mM NaPO4 containing 1% BSA and counted in a gamma counter. […]

[3] = target: T2, human VPAC1; experiment: cell-based or functional assay
[4] = target: T2, human VPAC1; experiment: competition with 125I-PACAP27 on membranes of CHO cells expressing human VPAC1
Method: (§1) Cells were washed with phosphate buffered saline (PBS), scraped in homogenization buffer (10 mM Tris pH 7.4, 2 mM EDTA, 5 mM MgCl2, 1 mM PMSF), followed by centrifugation at 4000 g for 10 minutes at 4° C. The cell pellet was resuspended in homogenization buffer and homogenized using a Polytron. Membranes were collected by centrifugation at 30,000 g for 30 minutes at 4° C., resuspended in homogenization buffer, and stored at −80° C. until use. […] After incubating at 37° C. for 20 minutes, bound ligand was collected on GF/C filters pretreated with 0.1% polyethylenimine. The filters were washed with cold 25 mM NaPO4 containing 1% BSA and counted in a gamma counter. All reagents were purchased from Sigma unless otherwise indicated.

[5] = target: T2, human VPAC1; experiment: ratio of the VPAC2 and VPAC1 IC50 values, 125I-PACAP27 competition on CHO membranes
Method: as §1

| Molecule | IC50 relative to reference compound R2P2 [1] | IC50 [2] | CHO VPAC1 cAMP inhibition (IC50 against 1 nM VIP) [3] | IC50 [4] | VPAC2/1 Selectivity [5] |
| --- | --- | --- | --- | --- | --- |
| CC[C@H](C)[C@H](NC(=O)[C@H](CO)NC(=O)[C@H](CCC(N)=O)NC(=O)[C@H](CC(C)C)NC(=O)[C@H](CC(C)C)NC(=O)[C@H](CCCCN)NC(=O)[C@H](CCCNC(=N)N)NC(=O)[C@H](C)NC(=O)[C@H](CO)NC(=O)[C@H](CC(C)C)NC(=O)[C@H](CCCNC(=N)N)NC(=O)[C@H](CCCCN)NC(=O)[C@H](CC(C)C)NC(=O)[C@@H](NC(=O)[C@H](CCCCN)NC(=O)[C@H](CCCNC(=N)N)NC(=O)[C@H](Cc1ccc(O)cc1)NC(=O)[C@H](CO)NC(=O)[C@H](CC(N)=O)NC(=O)[C@@H](NC(=O)[C@H](Cc1ccccc1)NC(=O)[C@@H](NC(=O)[C@H](C)NC(=O)[C@H](CC(=O)O)NC(=O)[C@@H](Cc1ccccc1)NC(=O)[C@H](Cc1c[nH]cn1)NC(C)=O)C(C)C)[C@@H](C)O)C(C)C)C(=O)N[C@@H](CC(C)C)C(N)=O [Peptide R2P16] (HELM PEPTIDE1{[ac].H.[dF].D.A.V.F.T.N.S.Y.R.K.V.L.K.R.L.S.A.R.K.L.L.Q.S.I.L.[am]}$$$$V2.0) | three times lower | – | – | – | – |
| R2P3-PEG22kD: R2P3 (SEQ ID NO 4) PEGylated at the C-terminal cysteine with 22 kD methoxy-PEG-maleimide (Ac-H[dF]DAVFTNSYRKVLKRLSARKLLQDILC([maleimide″-methoxy‑PEG 22 kD]); not fully specified (C-terminus); printed as HfDAVFTNSYRKVLKRLSARKLLQDILC*; also: C-terminal * undefined) [Peptide R2P3-PEG22kD] | – | > 10000 nM | – | – | – |
| R2P11-PEG22kD: R2P11 (SEQ ID NO 5) PEGylated at the C-terminal cysteine with 22 kD methoxy-PEG-maleimide (Ac-H[dF]DAVFTNSYRKVLKRLSVRKLLQDILC([maleimide-methoxy‑PEG 22 kD]); not fully specified (C-terminus); printed as HfDAVFTNSYRKVLKRLSVRKLLQDILC*; also: C-terminal * undefined) | – | > 10000 nM | – | – | – |
| Ac-H[dF]DAVFTNSYRKVLKRLSARKLLQDILC([maleimide-methoxy‑PEG 22 kD])-NH2 (also called PEGylated R2P3) [R2P3-PEG22kD] | – | – | 181 nM | 21 nM | > 480 fold |
| Ac-H[dF]DAVFTNSYRKVLKRLSVRKLLQDILC([maleimide-methoxy‑PEG 22 kD])-NH2 (also called PEGylated R2P11) [R2P11-PEG22kD] | – | – | 101 nM | 49 nM | > 200 fold |
| B1 | – | – | 50 nM | 17 nM | > 700 fold |
